Reference: the supplement of paper PMC10567573

B1: ZNF449 (parent)
chain: HTGERPYECTVCKKRFTRRSHLIG

Variants of: B1
Assay: protein stability index of a GFP-peptide fusion (GPS, HEK-293T) (PSI 1-6); higher = more stable
Conditions: c terminus: a fixed tail appended
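Also: lentivirally expressed fusions sorted by FACS into six bins by GFP to DsRed ratio, PSI derived from sequencing read proportions per bin multiplied by bin number.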

Protein stability index of substitutions, site by site:
R5: L 2.09; T 3; H 2.67; W 2; A 1.96; S 2.7; Q 2.23; C 3.5; I 2.19
C9: H 3.03; S 3.69; W 3.62; F 2.39; E 3.31; A 3.85; G 3.94; R 3.99; P 3.7
F16: P 3.2; Y 1.99; W 1.96; R 2.89; C 2.42; M 1.89; T 2; A 2.1; N 2.72
K14: I 2.26; P 1.97; E 1.73; V 2.09; M 1.61; R 1.53; H 2.58
Y7: C 3.74; D 2.6; A 2.8; E 2.88; R 2.12; W 1.4
R15: C 2.23; W 2.56; E 2.04
E4: N 2.15; H 2.17; S 2.53; V 2.02; K 1.7; D 1.82
T10: M 2.51; A 2.42; L 2.37; D 1.97
R18: A 2.13; T 1.97; P 1.91; D 2.88; Q 1.81; K 1.97; S 2.5
L22: I 2.23; M 1.86; A 3.16; Y 2.33; W 2.66; N 2.08; D 2.6
K13: F 2; W 2.62; N 1.78; C 1.06; D 2.91
V11: R 2.39; W 2.6; D 2.44; H 2.99; F 1.47; K 3.82
T2: Y 1.9; N 2.13; C 1.42; I 1.47; G 2.55; S 1.83
G24: E 1.92; K 3.12; C 2.48; N 2.39; P 1.95; Y 2.9; F 1.2; A 2.27
C12: F 3.01; S 3.39; V 2.76; Y 3.2; W 1.86; I 3.31
R19: Y 2.1; C 4.07; G 2.22; Q 2.34; I 1.39; E 2.01; P 1.94; T 1.84; W 2.52; S 2.76
S20: D 2.46; F 1.9; T 2.18; C 1.86; G 2.47; I 1.57; K 2.26; V 1.99
P6: K 2.02; N 2.3; L 1.58; W 2.38
G3: Y 1.9; A 2.63; N 1.85; C 3.04; K 2.2; S 2.33; F 2.06; V 1.82; D 2.44; L 3.83; R 1.73
H1: A 2.47; E 2.6; K 2.6; W 2; P 2.59; D 2.19
I23: S 2.55; G 1.81; H 3.06; R 3.41; C 3.61; Y 2.42
H21: V 2.97; S 2.93; N 2.39; C 2.1; Q 1.82; F 1.83; W 2.78
E8: I 2.74; Y 2.15; Q 2.76; K 1.96; H 2.12; F 1.84; W 2.23; A 1.77; C 2.38; N 1.79; T 2
T17: G 1.82; A 2.19; M 1.22; I 2.3; C 4.7; S 1.94
